Measurements published in publication PMC6488372 (Molecular microbiology, 2019).

Target: E. coli His-α ΔCTD (His-α Δ235, α 1–234) (E. coli, UniProt P0A7Z4 1-234)
Experiment: BLI

B1: LuxR (native, wild-type), purified (natural protein)
chain: MDSIAKRPRTRLSPLKRKQQLMEIALEVFARRGIGRGGHADIAEIAQVSVATVFNYFPTREDLVDEVLNHVVRQFSNFLSDNIDLDIHARENIANITNAMIELVSQDCHWLKVWFEWSASTRDEVWPLFVTTNRTNQLLVQNMFIKAIERGEVCDQHEPEHLANLFHGICYSIFVQANRSKSEAELTNLVSAYLDMLCIYNREHH
B1 was tested. Which Kd did it give?
The Kd was 256 nM.
